Test results as given in patent publication US20240075137A1 (COMPUGEN, published 2024).
Like-named read-outs stand apart in the source and are kept apart here.

How the values were obtained:
[1] = biological target: T1, mPVRL2 HIS (mouse, UniProt P32507 32-351, limits assumed); assay: ELISA: soluble receptor Fc titrated on immobilized mPVRL2 HIS
T1 construct: also called mPVRL2 protein; Soluble PVRL2 HIS protein
T1 sequence (looked up): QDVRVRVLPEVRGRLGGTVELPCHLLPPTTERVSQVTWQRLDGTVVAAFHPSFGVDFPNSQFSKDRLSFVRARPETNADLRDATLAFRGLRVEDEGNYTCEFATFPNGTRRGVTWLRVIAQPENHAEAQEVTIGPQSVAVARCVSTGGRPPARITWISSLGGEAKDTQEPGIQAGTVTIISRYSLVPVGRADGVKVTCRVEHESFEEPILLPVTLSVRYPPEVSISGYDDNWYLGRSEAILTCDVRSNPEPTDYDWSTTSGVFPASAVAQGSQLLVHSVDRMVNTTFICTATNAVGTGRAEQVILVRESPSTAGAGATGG

[2] = biological target: T2, human TIGIT on cells (human, UniProt Q495A1 22-141); assay: FACS blocking of human PVR-m2aFc binding to human TIGIT OE Expi293 cells; binding site concentration; n=1
T2 construct: also called Expi293 human TIGIT over-expressing cells
T2 sequence: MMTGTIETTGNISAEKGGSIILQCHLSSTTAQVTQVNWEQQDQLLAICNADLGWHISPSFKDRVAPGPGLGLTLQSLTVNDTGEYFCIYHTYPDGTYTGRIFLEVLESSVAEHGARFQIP

[3] = biological target: T3, cyno TIGIT on cells (cynomolgus macaque); assay: FACS titration on cyno TIGIT OE Expi293 cells, binding site concentration; ± 95% CI; 'Fit: Good/Excellent'
T3 construct: whole, on cells; also called Expi293 cyno TIGIT over-expressing cells

[4] = biological target: T4, Mouse TIGIT-His (mouse, UniProt P86176); assay: SPR (ProteOn), mAb captured, mouse TIGIT monomer injected; BM29 as hIgG4
T4 construct: also called mouse TIGIT monomer (prepared in-house)
T4 sequence (soluble monomer with His tag, looked up): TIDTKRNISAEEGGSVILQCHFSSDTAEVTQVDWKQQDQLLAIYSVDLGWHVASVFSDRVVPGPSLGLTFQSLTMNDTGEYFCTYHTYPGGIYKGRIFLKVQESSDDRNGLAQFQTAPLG

[5] = biological target: T5, Cyno TIGIT-His; assay: SPR (ProteOn), Cyno TIGIT-His
T5 construct: also called cyno TIGIT monomer (prepared in-house); C-terminal HIS-tagged cyno TIGIT ECD recombinant protein
T5 sequence (ECD with C-terminal His tag, as listed by the source): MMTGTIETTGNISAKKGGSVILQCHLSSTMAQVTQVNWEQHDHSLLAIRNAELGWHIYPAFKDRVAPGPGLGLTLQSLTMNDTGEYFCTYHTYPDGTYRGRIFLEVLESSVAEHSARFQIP

[6] = biological target: T2, human TIGIT on cells; assay: FACS titration of AF647-labelled mAb on human effector memory CD8+ T cells, Donor 321
[7] = biological target: T2, human TIGIT on cells; assay: FACS titration of AF647-labelled mAb on human effector memory CD8+ T cells, Donor 322
[8] = biological target: T6, human TIGIT ECD with C-terminal polyhistidine tag (human, UniProt Q495A1 22-141); assay: SPR (ProteOn), Human TIGIT-His
T6 construct: in-house or Sino Biological; also called hTIGIT-HIS; human TIGIT-HIS
T6 sequence: T2 sequence

[9] = biological target: T2, human TIGIT on cells; assay: FACS titration on human TIGIT OE Expi293 cells, binding site concentration; ± 95% CI; 'Fit: Excellent'
[10] = biological target: T2, human TIGIT on cells; assay: FACS titration of AF647-labelled mAb on human effector memory CD8+ T cells, Donor 334
[11] = biological target: T2, human TIGIT on cells; assay: FACS blocking of human PVR-m2aFc binding to human TIGIT OE Expi293 cells; binding site concentration; n=2
[12] = biological target: T6, human TIGIT ECD with C-terminal …; assay: SPR (ProteOn), mAb captured, human TIGIT injected; BM29 as hIgG4
[13] = biological target: T7, human PVRIG on cells (human, UniProt Q6DKI7 1-326); assay: FACS on HEK hPVRIG cells; column head 'Kd', unit nM from legend paragraph 75
T7 construct: whole, on cells; over-expressed on HEK cells or endogenous on Jurkat and CD8 T cells; also called hPVRIG; HEK hPVRIG cells
T7 sequence (looked up): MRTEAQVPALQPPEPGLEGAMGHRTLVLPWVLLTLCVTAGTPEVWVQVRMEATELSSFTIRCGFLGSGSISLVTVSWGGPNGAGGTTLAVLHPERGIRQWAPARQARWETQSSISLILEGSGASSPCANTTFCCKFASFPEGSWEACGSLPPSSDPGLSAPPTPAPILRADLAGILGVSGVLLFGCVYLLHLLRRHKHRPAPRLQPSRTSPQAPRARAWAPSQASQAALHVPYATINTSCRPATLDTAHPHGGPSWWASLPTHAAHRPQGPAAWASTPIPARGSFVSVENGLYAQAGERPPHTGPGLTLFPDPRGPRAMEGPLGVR

[14] = biological target: T7, human PVRIG on cells; assay: FACS on Jurkat cells; column head 'Kd', unit nM from legend paragraph 75
[15] = biological target: T8, PVRIG (FACS-based competition assay of FIGS. 7 and 15) (Homo sapiens, UniProt Q6DKI7); assay: FACS-based competition assay of PVRIG blocking; format and competitor not given
T8 construct: made because the format of the assay is only described in U.S. Ser. No. 15/048,967; also called human PVRIG
T8 sequence (receptor, looked up): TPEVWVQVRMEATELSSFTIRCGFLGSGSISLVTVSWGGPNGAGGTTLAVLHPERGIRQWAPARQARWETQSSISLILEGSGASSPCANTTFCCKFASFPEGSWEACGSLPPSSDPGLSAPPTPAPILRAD

[16] = biological target: T7, human PVRIG on cells; assay: FACS, HEK hPVRIG cells (HEK OE)
[17] = biological target: T7, human PVRIG on cells; assay: flow cytometry, Jurkat cells
[18] = biological target: T7, human PVRIG on cells; assay: flow cytometry, HEK hPVRIG cells
[19] = biological target: T8, PVRIG (FACS-based competition assay of …); assay: FACS-based competition assay of PVRIG blocking; format and competitor not given; remark: listed apart in the source
[20] = biological target: T7, human PVRIG on cells; assay: FACS on Jurkat cells pre-incubated with Isotype (unconjugated)
[21] = biological target: T9, PVRIG Fc (UniProt Q6DKI7 41-171, limits assumed, biotinylated (Example 5)); assay: FACS competition: biotinylated PVRIG Fc (33 nM) binding to HEK cells with endogenous PVRL2
T9 construct: also called biotinylated PVRIG Fc protein; PVRIG-Fc-fusion protein
T9 sequence (looked up): T8 sequence (receptor, looked up)

[22] = biological target: T7, human PVRIG on cells; assay: flow cytometry titration, HEK hPVRIG cells
[23] = biological target: T7, human PVRIG on cells; assay: flow cytometry titration, Jurkat cells
[24] = biological target: T10, cynomolgus PVRIG on cells (cynomolgus, UniProt A0A2K5WVV8 41-322); assay: flow cytometry titration, expi cPVRIG cells
T10 construct: whole, on cells; also called cPVRIG; expi cPVRIG cells
T10 sequence: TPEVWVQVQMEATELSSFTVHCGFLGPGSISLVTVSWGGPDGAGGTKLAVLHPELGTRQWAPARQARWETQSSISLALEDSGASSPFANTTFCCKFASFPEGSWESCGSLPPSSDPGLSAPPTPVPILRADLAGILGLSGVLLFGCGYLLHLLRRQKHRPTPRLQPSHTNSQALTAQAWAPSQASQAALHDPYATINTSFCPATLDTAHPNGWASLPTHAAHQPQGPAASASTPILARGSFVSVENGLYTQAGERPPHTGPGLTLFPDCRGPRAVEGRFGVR

[25] = biological target: T7, human PVRIG on cells; assay: FACS competition: PVRL2 mFc binding to HEK hPVRIG cells
[26] = biological target: T7, human PVRIG on cells; assay: FACS on Jurkat cells pre-incubated with CHA.7.538.1.2 (unconjugated)
[27] = biological target: T7, human PVRIG on cells; assay: FACS on Jurkat cells pre-incubated with CHA.7.518.1 (unconjugated)

B1: TIGIT Fc (Fc fusion, UniProt P86176 29-148, looked up)
fusion chain: T4 sequence (soluble monomer with His tag, looked up)
notes: receptor part of an Fc fusion; Soluble receptor Fc tested on immobilized mPVRL2 HIS
B1: no binding (tested: about 200 nM) [1].

B2: BM29 hIgG4 (antibody, V domains shown)
VH: QVHLQESGPGLVKPSETLSLTCTVSGGSVSSGIYYWSWIRQPPGKGLEWIGYIYYSGSTNYNPSLKSRVTISVDTSKNQFSLKLSSVTAADTAVYYCARDYYVSGNYYNVDYYFFGVDVWGQGTTVTVSS
VL: EIVLTQSPATLSLSPGERATLSCRASQSVSSYLAWYQQKPGQAPRLLIYDASNRATGIPARFSGSGSGTDFTLTISSLEPEDFAVYYCQQRSNWPPLFTFGPGTKVDIKR
notes: benchmark anti-human TIGIT antibody, human IgG4 with S241P; also called BM29-H4; US2016/0176963A1 Clone 22G2 as hIgG4
In the case of B2, the IC50 [2] is reported as 1000 pM, the Kd [3] is reported as 1670 pM and the binding result [4] is reported as “no binding (tested: 92.9 nM mouse TIGIT)”. For the same binder, the Kd [5] was 1540 pM, the Kd [6] was 880 pM and the Kd [7] was 910 pM. The Kd [8] was 11 pM, the Kd [9] was 1530 pM and the Kd [10] was 590 pM. It also gave an IC50 [11] of 500 pM and a Kd [12] of 15 pM.

B3: CHA.7.518 (antibody, V domains shown)
VH: EVQLQQSGPELVKPGASVKISCKASGYTFTDYNINWVKQSHGKSLEWIGYIYPYIGGSGYNQKFKSKATLSADNPSSTAYMELRSLTSEDSAVYYCAREDKTARNAMDYWGQGTPVTVSS
VL: DIQMTQSPASLSVSVGETVTIICRVSENIYSNLAWYQQKQGKSPQLLVYEATNLAEGVPSRFSGSGSGTQYSLKINSLQSEDFGSYYCQHFWGTPYTFGGGTKLEIK
B3 gave a Kd [13] of 360 pM, a Kd [14] of 240 pM and an IC50 [15] of 23200 pM. The EC50 [16] was 360 pM, the “fold higher affinity than CPA.7.021” value [17] was about 13 fold and the “fold higher affinity than CPA.7.021” value [18] was about 8 fold. For the same binder, the IC50 [19] was 23200 pM.

B4: CHA.7.538.1.2.H4(S241P) (antibody, human IgG4 S228P, kappa, V domains shown)
VH: QVQLVQSGAEVKKPGASVKVSCKASGYAFTNYLIEWVRQAPGQGLEWIGVINPGSGGIYYAQKFQGRVTMTADTSTSTVYMELSSLRSEDTAVYYCARSETHDTWFAYWGQGTLVTVSS
VL: DIQMTQSPSSLSASVGDRVTITCKASQSVRIAVAWFQQKPGKAPKALIYLASTRHTGVPSRFSGSGSGTDFTLTISSVQPEDFATYYCLQHWNYPYTFGQGTKLEIKR
notes: humanized, human IgG4 with S241P
B4 was tested, and the “% binding relative to maximum signal” value [20] was 100%, the IC50 [21] was 16100 pM and the Kd [22] was 860 pM. The Kd [23] was 590 pM, the Kd [24] was 580 pM and the IC50 [25] was 2530 pM. For the same binder, the “% binding relative to maximum signal” value [26] was 7% and the “% binding relative to maximum signal” value [27] was 32%.
